{"source": "patent US20180208680A1", "about": "(published 2018)", "binders": {"B1": {"name": "4C4 scFv (scFv, V domains shown)", "VH": "QVQLVESGPGLVKPSQTLSLTCSVSGASINNSPYFWNWFRQFPGKGLEWIGYIYWSGSTNYNPSLKSRLAMSVDTSKNQFSLKLTSATAADTAVYYCARDQGGGTVVKENWFDPWGQGTLVTVSS", "VL": "DIVMTQSPSSLSASVGDRLTMTCQASQDIGKHLNWYQQKAGKPPKLLIYGASNLKTGVPSRFSAGVSWTDFTFTISNVQPEDVATYYCQQSYSTPPTFGQGTKVEIKR"}, "B2": {"name": "4C4.1 scFv (scFv, V domains shown)", "VH": "B1 VH", "VL": "ETTLTQSPSSLSASVGDRVSITCRASQSISNYLNWYQQKPGKAPKLLIYAASSLQSGVPSRFSGSGSGTDFTLTISSLQPEDFATYYCQQSYSDPPTFGQGTKVEIKR"}, "B3": {"name": "4C4.2 scFv (scFv, V domains shown)", "VH": "B1 VH", "VL": "DIQMTQSPSTLSASVGDRVTITCRASQSIGTYLNWYQQKPGRAPTLLVSRTSNLHTGVPSRFSGDGSGSHFSLTIDSLQPEDFATYYCQQSHTSPVTFGQGTKVEIKR"}, "B4": {"name": "4C10 scFv (scFv, V domains shown)", "VH": "QVQLVESGGGAVQPGESLRLSCAASGFTFSGFDMHWVRQSPGRGLEWVARISHDGSMADYADSLRGRFTISRDNPKNTLYLHMNSLRVEDTALYYCAKDRWRSGSYPAFEKWGQGTMVTVSS", "VL": "QSVPTQPASVSGSPGQSITISCTGTSSDVGAYNYVSWYQQHPGKAPKLMIYDVSDRPSGVSNRFSGSKSGNTASLTISGLQAEDEADYYCSSYTSSSTYVFGTGTKLTVL"}, "B5": {"name": "8DC1.2 IgG (antibody, V domains shown)", "VH": "QVTLKESGGGLVQPGRSLTLSCPLSGFTSSDYVLHWVRQAPGTGLDWVAVISSDGTKAYYGDSVKGRFTISRDTSKNTLLLQMNSPRAEDTAIYYCAISTRGPFDIWGHGTMVTVSS", "VL": "DIQMTQSPSSLSAFVGDRITITCRASRGVSNYLAWYQQKPGKAPKLLIYAASSLQSGVPSRFSGSGSGTEFTLTISGLQPDDFATYYCQQYNAYPLTFGGGTKLEIK"}, "B6": {"name": "4C4.1 IgG (antibody, V domains shown)", "VH": "B1 VH", "VL": "ETTLTQSPSSLSASVGDRVSITCRASQSISNYLNWYQQKPGKAPKLLIYAASSLQSGVPSRFSGSGSGTDFTLTISSLQPEDFATYYCQQSYSDPPTFGQGTKVEIK"}, "B7": {"name": "4C4 IgG (antibody, V domains shown)", "VH": "B1 VH", "VL": "DIVMTQSPSSLSASVGDRLTMTCQASQDIGKHLNWYQQKAGKPPKLLIYGASNLKTGVPSRFSAGVSWTDFTFTISNVQPEDVATYYCQQSYSTPPTFGQGTKVEIK"}, "B8": {"name": "4C4.2 IgG (antibody, V domains shown)", "VH": "B1 VH", "VL": "DIQMTQSPSTLSASVGDRVTITCRASQSIGTYLNWYQQKPGRAPTLLVSRTSNLHTGVPSRFSGDGSGSHFSLTIDSLQPEDFATYYCQQSHTSPVTFGQGTKVEIK"}}}
{"biological_target": "T1, BoNT/C1 holotoxin (Clostridium botulinum, UniProt P18640 2-1291)", "T1 sequence": "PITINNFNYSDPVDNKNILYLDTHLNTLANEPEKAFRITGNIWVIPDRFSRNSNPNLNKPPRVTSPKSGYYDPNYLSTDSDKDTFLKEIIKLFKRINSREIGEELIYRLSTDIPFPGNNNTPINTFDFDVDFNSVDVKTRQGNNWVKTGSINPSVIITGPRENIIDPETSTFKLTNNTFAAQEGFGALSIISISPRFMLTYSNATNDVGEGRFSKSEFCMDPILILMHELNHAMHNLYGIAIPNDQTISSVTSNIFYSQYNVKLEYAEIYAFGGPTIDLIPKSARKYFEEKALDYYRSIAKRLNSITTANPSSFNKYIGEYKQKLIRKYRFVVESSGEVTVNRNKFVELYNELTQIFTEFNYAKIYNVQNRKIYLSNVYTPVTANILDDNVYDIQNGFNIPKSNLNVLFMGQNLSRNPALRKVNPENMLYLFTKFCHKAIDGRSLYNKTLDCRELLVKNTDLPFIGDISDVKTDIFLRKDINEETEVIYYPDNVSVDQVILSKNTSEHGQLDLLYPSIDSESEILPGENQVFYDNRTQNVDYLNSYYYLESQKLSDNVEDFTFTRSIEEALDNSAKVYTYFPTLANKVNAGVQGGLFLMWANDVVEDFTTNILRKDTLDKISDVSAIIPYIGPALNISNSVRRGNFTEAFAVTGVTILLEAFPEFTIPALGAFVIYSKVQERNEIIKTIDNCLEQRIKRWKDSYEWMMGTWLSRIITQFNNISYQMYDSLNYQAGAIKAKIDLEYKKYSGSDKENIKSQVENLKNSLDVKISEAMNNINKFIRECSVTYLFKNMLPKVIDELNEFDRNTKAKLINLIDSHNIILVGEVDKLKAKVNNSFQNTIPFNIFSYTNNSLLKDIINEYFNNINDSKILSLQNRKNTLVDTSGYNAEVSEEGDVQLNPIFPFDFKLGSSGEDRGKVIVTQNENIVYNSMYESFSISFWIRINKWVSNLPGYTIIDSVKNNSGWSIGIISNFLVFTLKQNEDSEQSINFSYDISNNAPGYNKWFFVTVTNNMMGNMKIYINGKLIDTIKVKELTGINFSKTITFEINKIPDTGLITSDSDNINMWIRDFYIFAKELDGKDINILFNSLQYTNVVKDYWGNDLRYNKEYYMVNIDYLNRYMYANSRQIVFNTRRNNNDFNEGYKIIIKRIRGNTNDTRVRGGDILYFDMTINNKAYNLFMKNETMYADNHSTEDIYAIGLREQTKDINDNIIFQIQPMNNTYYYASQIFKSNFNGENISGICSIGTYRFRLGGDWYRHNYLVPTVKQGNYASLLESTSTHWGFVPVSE", "assay": "yeast scFv FACS", "units": {"Kd": "nM"}}
{"binder": "B1", "Kd": 3}
{"binder": "B2", "Kd": 1.5}
{"binder": "B3", "Kd": 1.1}
{"biological_target": "T2, BoNT/DC mosaic toxin (Clostridium botulinum)", "assay": "yeast scFv FACS", "units": {"Kd": "nM"}}
{"binder": "B1", "Kd": 0.58}
{"binder": "B2", "Kd": 0.06}
{"binder": "B3", "Kd": 0.13}
{"binder": "B4", "Kd": 107}
{"biological_target": "T1, BoNT/C1 holotoxin", "assay": "IgG KinExA", "units": {"Kd": "nM"}}
{"binder": "B5", "Kd": 0.736}
{"binder": "B6", "Kd": 0.539}
{"binder": "B7", "Kd": 0.835}
{"binder": "B8", "Kd": 0.035}
{"biological_target": "T2, BoNT/DC mosaic toxin", "assay": "IgG KinExA", "units": {"Kd": "nM"}}
{"binder": "B6", "Kd": 0.058}
{"binder": "B7", "Kd": 0.577}
{"binder": "B8", "Kd": 0.126}
{"biological_target": "T1, BoNT/C1 holotoxin", "assay": "yeast scFv FACS", "remark": "another data set of the same source", "units": {"Kd": "nM"}}
{"binder": "B1", "Kd": 2.6}
